Measurements: the supplement of paper PMC10567573

B1: BRF1 (parent)
chain: FVESSGGGSSAVGQFVSLDGAGKT
B2: ANKRD9 (parent)
chain: VGAAGSARQELLGDRPRWQRLLGE

Variants of: B1
Experiment: protein stability index of a GFP-peptide fusion (GPS, HEK-293T) (PSI 1-6); higher = more stable
Conditions: c terminus: a fixed tail appended
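Also: lentivirally expressed fusions sorted by FACS into six bins by GFP to DsRed ratio, PSI derived from sequencing read proportions per bin multiplied by bin number.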

Variant	protein stability index
FVESSGGGSSAVGQFVSLDGAGKI [T24I]	2.59
FVESSGGGSSAVGQFVSLDGAGKL [T24L]	2.02
FVESSGGGSSAVGQFVSLDGAGKR [T24R]	3.12
FVESSGGGSSAVGQFVSLDGAGKE [T24E]	2.3
FVESSGGGSSAVGQFVSLDGAGKN [T24N]	2.15
FVESSGGGSSAVGQFVSLDGAGKK [T24K]	2.44
FVESSGGGSSAVGQFVSLDGAGKF [T24F]	1.62
FVESSGGGSSAVGQFVSLDGAGKH [T24H]	1.79
FVESSGGGSSAVGQFVSLDGAGKY [T24Y]	1.85
FVESSGGGSSAVGQFVSLDGAGKC [T24C]	2.27
FVESSGGGSSAVGQFVSLDGAGKQ [T24Q]	2.86
FVESSGGGSSAVGQFVSLDGAGKA [T24A]	2.98
FVESSGGGSSAVGQFVSLDGAGKS [T24S]	2.19
FVESSGGGSSAVGQFVSLDGAGKV [T24V]	2.33
FVESSGGGSSAVGQFVSLDGAGKD [T24D]	2.72
FVESSGGGSSAVGQFVSLDGAGKM [T24M]	2
FVESSGGGSSAVGQFVSLDGAGKG [T24G]	2.26
FVESSGGGSSAVGQFVSLDGAGKP [T24P]	2.48
FVESSGGGSSAVGQFVSLDGAGKW [T24W]	2.24
FVESSGGGSSAVGQFVSLDAAGKT [G20A]	2.41
FVESSGGGSSAVGQFVSLDDAGKT [G20D]	2.43
FVESSGGGSSAVGQFVSLDNAGKT [G20N]	2.32
FVESSGGGSSAVGQFVSLDCAGKT [G20C]	2.41
FVESSGGGSSAVGQFVSLDTAGKT [G20T]	2.21
FVESSGGGSSAVGQFVSLDFAGKT [G20F]	2.6

Variant	protein stability index
FVESSGGGSSAVGQFVSLDKAGKT [G20K]	1.72
FVESSGGGSSAVGQFVSLDRAGKT [G20R]	2.32
FVESSGGGSSAVGQFVSLDPAGKT [G20P]	2.13
FVESSGGGSSAVGQFVSLDLAGKT [G20L]	2.58
FVESSGGGSSAVGQFVSLDEAGKT [G20E]	2.55
FVESSGGGSSAVGQFVSLDVAGKT [G20V]	2.41
FVESSGGGSSAVGQFVSLDQAGKT [G20Q]	3.03
FVESSGGGSSAVGQFVSLDWAGKT [G20W]	2.34
FVESSGGGSSAVGQFVSLDIAGKT [G20I]	2.16
FVESSGGGSSAVGQFVSLDHAGKT [G20H]	2.55
FVESSGGGSSAVGQFVSLDSAGKT [G20S]	1.75
FVESSGGGSSAVGQFVSLDMAGKT [G20M]	1.76
FVESSGGGSSAVGQFVSLDYAGKT [G20Y]	1.6
FVESSGGGSSAVGQFVSLWGAGKT [D19W]	3.02
FVESSGGGSSAVGQFVSLTGAGKT [D19T]	1.59
FVESSGGGSSAVGQFVSLNGAGKT [D19N]	2.02
FVESSGGGSSAVGQFVSLHGAGKT [D19H]	2.27
FVESSGGGSSAVGQFVSLSGAGKT [D19S]	1.59
FVESSGGGSSAVGQFVSLQGAGKT [D19Q]	1.98
FVESSGGGSSAVGQFVSLGGAGKT [D19G]	1.69
FVESSGGGSSAVGQFVSLAGAGKT [D19A]	1.72
FVESSGGGSSAVGQFVSLCGAGKT [D19C]	1.72
FVESSGGGSSAVGQFVSLVGAGKT [D19V]	1.12
FVESSGGGSSAVGQFVSLFGAGKT [D19F]	1.48
FVESSGGGSSAVGQFVSLEGAGKT [D19E]	2.56

Variant	protein stability index
FVESSGGGSSAVGQFVSLMGAGKT [D19M]	2.17
FVESSGGGSSAVGQFVSLKGAGKT [D19K]	2.55
FVESSGGGSSAVGQFVSLPGAGKT [D19P]	2.26
FVESSGGGSSAVGQTVSLDGAGKT [F15T]	2.96
FVESSGGGSSAVGQVVSLDGAGKT [F15V]	2.12
FVESSGGGSSAVGQYVSLDGAGKT [F15Y]	2.59
FVESSGGGSSAVGQQVSLDGAGKT [F15Q]	2.56
FVESSGGGSSAVGQPVSLDGAGKT [F15P]	3.14
FVESSGGGSSAVGQRVSLDGAGKT [F15R]	2.69
FVESSGGGSSAVGQWVSLDGAGKT [F15W]	2.06
FVESSGGGSSAVGQSVSLDGAGKT [F15S]	2.73
FVESSGGGSSAVGQFVHLDGAGKT [S17H]	2.54
FVESSGGGSSAVGQFVWLDGAGKT [S17W]	2.87
FVESSGGGSSAVGQFVDLDGAGKT [S17D]	2.39
FVESSGGGSSAVGQFVNLDGAGKT [S17N]	2.19
FVESSGGGSSAVGQFVKLDGAGKT [S17K]	1.89
FVESSGGGSSAVGQFVALDGAGKT [S17A]	3.26
FVESSGGGSSAVGQFVMLDGAGKT [S17M]	1.57
FVESSGGGSSAVGQFVYLDGAGKT [S17Y]	2.45
FVESSGGGSSAVGQFVVLDGAGKT [S17V]	1.99
FVESSGGGSSAVGQFVQLDGAGKT [S17Q]	2.81
FVESSGGGSSAVGQFVTLDGAGKT [S17T]	2.29
FVESSGGGSSAVGQFVRLDGAGKT [S17R]	1.73
FVESSGGGSSAVGQFVGLDGAGKT [S17G]	3.15
FVESSGGGSSAVGQFVCLDGAGKT [S17C]	1.83

Variant	protein stability index
FVESSGGGSSAVGQFVILDGAGKT [S17I]	1.23
FVESSGGGSSAVGQFVLLDGAGKT [S17L]	2.33
FVESSGGGSSAVGQFVFLDGAGKT [S17F]	1.72
FVESSGGGSSAVGQFVELDGAGKT [S17E]	2.53
FVESSGGGSSAVGQFVPLDGAGKT [S17P]	1.81
FVESSGGGSSAVGQFVSLDGAGET [K23E]	2.56
FVESSGGGSSAVGQFVSLDGAGMT [K23M]	2.16
FVESSGGGSSAVGQFVSLDGAGVT [K23V]	2.12
FVESSGGGSSAVGQFVSLDGAGRT [K23R]	2.21
FVESSGGGSSAVGQFVSLDGAGPT [K23P]	2.73
FVESSGGGSSAVGQFVSLDGAGFT [K23F]	1.59
FVESSGGGSSAVGQFVSLDGAGQT [K23Q]	2.01
FVESSGGGSSAVGQFVSLDGAGAT [K23A]	2.04
FVESSGGGSSAVGQFVSLDGAGHT [K23H]	2.24
FVESSGGGSSAVGQFVSLDGAGGT [K23G]	2.38
FVESSGGGSSAVGQFVSLDGAGIT [K23I]	2.02
FVESSGGGSSAVGQFVSLDGAGST [K23S]	2
FVESSGGGSSAVGQFVSLDGAGDT [K23D]	2.68
FVESSGGGSSAVGQFVSLDGAGCT [K23C]	2.23
FVESSGGGSSAVGQFVSLDGAGTT [K23T]	2.55
FVESSGGGSSAVGQFVSLDGAGNT [K23N]	2.19
FVESSGGGSSAVGQFVSLDGAGLT [K23L]	2.21
FVESSGGGSSAVGQFVSLDGAGYT [K23Y]	2.05
FVESSGGGSSAVGQFVSLDGAGWT [K23W]	2.28
FVESSGGGSSAVGQFVSLDGAWKT [G22W]	1.84

Variant	protein stability index
FVESSGGGSSAVGQFVSLDGALKT [G22L]	1.6
FVESSGGGSSAVGQFVSLDGAYKT [G22Y]	1.9
FVESSGGGSSAVGQFVSLDGASKT [G22S]	2.47
FVESSGGGSSAVGQFVSLDGATKT [G22T]	2.09
FVESSGGGSSAVGQFVSLDGANKT [G22N]	2.39
FVESSGGGSSAVGQFVSLDGAEKT [G22E]	3.08
FVESSGGGSSAVGQFVSLDGACKT [G22C]	1.79
FVESSGGGSSAVGQFVSLDGAAKT [G22A]	3
FVESSGGGSSAVGQFVSLDGAPKT [G22P]	3.13
FVESSGGGSSAVGQFVSLDGAKKT [G22K]	1.73
FVESSGGGSSAVGQFVSLDGAVKT [G22V]	2.29
FVESSGGGSSAVGQFVSLDGAQKT [G22Q]	2.26
FVESSGGGSSAVGQFVSLDGAFKT [G22F]	2.35
FVESSGGGSSAVGQFVSLDGAHKT [G22H]	2.65
FVESSGGGSSAVGQFVSLDGADKT [G22D]	3.15
FVESSGGGSSAVGQFVSLDGAIKT [G22I]	2.62
FVESSGGGSSAVGQFVSLDGARKT [G22R]	1.87
FVESSGGGSSAVGQFHSLDGAGKT [V16H]	2.6
FVESSGGGSSAVGQFRSLDGAGKT [V16R]	2.35
FVESSGGGSSAVGQFQSLDGAGKT [V16Q]	2.97
FVESSGGGSSAVGQFDSLDGAGKT [V16D]	2.96
FVESSGGGSSAVGQFLSLDGAGKT [V16L]	2.36
FVESSGGGSSAVGQFPSLDGAGKT [V16P]	2.66
FVESSGGGSSAVGQFNSLDGAGKT [V16N]	2.63
FVESSGGGSSAVGQFFSLDGAGKT [V16F]	2.01

Variant	protein stability index
FVESSGGGSSAVGQFYSLDGAGKT [V16Y]	1.75
FVESSGGGSSAVGQFASLDGAGKT [V16A]	2.65
FVESSGGGSSAVGQFGSLDGAGKT [V16G]	2.4
FVESSGGGSSAVGQFCSLDGAGKT [V16C]	3.51
FVESSGGGSSAVGQFWSLDGAGKT [V16W]	4.22
FVESSGGGSSAVGQFSSLDGAGKT [V16S]	2.83
FVESSGGGSSAVGQFISLDGAGKT [V16I]	2.18
FVESSGGGSSAVGQFMSLDGAGKT [V16M]	2.96
FVESSGGGSSAVGQFKSLDGAGKT [V16K]	2.16
FVESSGGGSSAVGQFESLDGAGKT [V16E]	3.51
FVESSGGGSSAVGQFTSLDGAGKT [V16T]	2.38
FVESSGGGSSAVGQFVSQDGAGKT [L18Q]	2.88
FVESSGGGSSAVGQFVSVDGAGKT [L18V]	2.95
FVESSGGGSSAVGQFVSTDGAGKT [L18T]	2.04
FVESSGGGSSAVGQFVSDDGAGKT [L18D]	2.58
FVESSGGGSSAVGQFVSNDGAGKT [L18N]	3.25
FVESSGGGSSAVGQFVSGDGAGKT [L18G]	2.15
FVESSGGGSSAVGQFVSMDGAGKT [L18M]	2.55
FVESSGGGSSAVGQFVSFDGAGKT [L18F]	1.83
FVESSGGGSSAVGQFVSWDGAGKT [L18W]	1.58
FVESSGGGSSAVGQFVSIDGAGKT [L18I]	2.69
FVESSGGGSSAVGQFVSKDGAGKT [L18K]	2.3
FVESSGGGSSAVGQFVSSDGAGKT [L18S]	2.66
FVESSGGGSSAVGQFVSPDGAGKT [L18P]	2.12
FVESSGGGSSAVGQFVSADGAGKT [L18A]	2.5

Variant	protein stability index
FVESSGGGSSAVGQFVSEDGAGKT [L18E]	3.8
FVESSGGGSSAVGQFVSRDGAGKT [L18R]	2
FVESSGGGSSAVGQFVSYDGAGKT [L18Y]	1.85
FVESSGGGSSAVGQFVSHDGAGKT [L18H]	3.25
FVESSGGGSSAVGQFVSCDGAGKT [L18C]	2.5
FVESSGGGSSAVGQFVSLDGPGKT [A21P]	1.95
FVESSGGGSSAVGQFVSLDGYGKT [A21Y]	1.91
FVESSGGGSSAVGQFVSLDGDGKT [A21D]	3.36
FVESSGGGSSAVGQFVSLDGSGKT [A21S]	2.15
FVESSGGGSSAVGQFVSLDGVGKT [A21V]	1.92
FVESSGGGSSAVGQFVSLDGQGKT [A21Q]	2.03
FVESSGGGSSAVGQFVSLDGWGKT [A21W]	1.73
FVESSGGGSSAVGQFVSLDGRGKT [A21R]	2.66
FVESSGGGSSAVGQFVSLDGLGKT [A21L]	1.8
FVESSGGGSSAVGQFVSLDGKGKT [A21K]	2.43
FVESSGGGSSAVGQFVSLDGTGKT [A21T]	2.54
FVESSGGGSSAVGQFVSLDGHGKT [A21H]	2.13
FVESSGGGSSAVGQFVSLDGNGKT [A21N]	2.56
FVESSGGGSSAVGQFVSLDGIGKT [A21I]	1.96
FVESSGGGSSAVGQFVSLDGCGKT [A21C]	1.81
FVESSGGGSSAVGQFVSLDGGGKT [A21G]	2.6
FVESSGGGSSAVGQFVSLDGMGKT [A21M]	2.32
FVESSGGGSSAVGQFVSLDGEGKT [A21E]	3.23
FVESSGGGSSAVGQFVSLDGFGKT [A21F]	1.33

Variants of: B2
Experiment: as above
Conditions: c terminus: a fixed tail appended

Variant	protein stability index
RGAAGSARQELLGDRPRWQRLLGE [V1R]	2.75
KGAAGSARQELLGDRPRWQRLLGE [V1K]	3.69
MGAAGSARQELLGDRPRWQRLLGE [V1M]	3.03
CGAAGSARQELLGDRPRWQRLLGE [V1C]	1.95
AGAAGSARQELLGDRPRWQRLLGE [V1A]	3.58
PGAAGSARQELLGDRPRWQRLLGE [V1P]	3.62
DGAAGSARQELLGDRPRWQRLLGE [V1D]	4.49
IGAAGSARQELLGDRPRWQRLLGE [V1I]	2.35
FGAAGSARQELLGDRPRWQRLLGE [V1F]	2.7
LGAAGSARQELLGDRPRWQRLLGE [V1L]	2.86
GGAAGSARQELLGDRPRWQRLLGE [V1G]	3.13
QGAAGSARQELLGDRPRWQRLLGE [V1Q]	3.7
EGAAGSARQELLGDRPRWQRLLGE [V1E]	2.77
HGAAGSARQELLGDRPRWQRLLGE [V1H]	3.33
